{"source": "patent US20250011734A1", "about": "“DGAT1/2-INDEPENDENT ENZYME SYNTHESIZING STORAGE LIPIDS (DIESL)” (STICHTING HET NEDERLANDS KANKER INSTITUUT-ANTONI VAN …, priority 2021, published 2025)", "key": {"[1]": {"test_system": "HAP1 4KO cells (ΔDGAT1ΔDGAT2ΔDIESLΔTMX1)", "assay": "Shotgun lipidomics of HAP1 4KO cells reconstituted with WT or H130A DIESL", "format": "cell-based, human", "settings": "HAP1 4KO cells expressing active (WT) or catalytic-inactive (H130A) DIESL; FIG. 4B", "protocol": "HAP1 4KO (ΔDGAT1ΔDGAT2ΔDIESLΔTMX1) cells, reconstituted with WT or H130A DIESL, were cultured in complete medium. Prior to collection, cells were cultured in serum-free IMDM for thirty minutes. Cells were then collected by trypsinization, washed twice with PBS and three million cells (in triplicate) were pelleted and stored at −80° C. For E. coli samples, 2 ml of induced culture (as described above, in triplicate) was pelleted and incubated overnight at −80° C. The following day, bacterial pellets were thawed and incubated in 25 μg/ml lysozyme in PBS for 30 minutes. Cells were pelleted, washed in PBS, and then pelleted again before resuspension in distilled water. Cells were sonicated at 60% amplitude for 5 minutes, in continuous 5-second on/25-second off cycles. The insoluble fraction was pelleted by centrifugation and the lysate (supernatant) was quantified for protein and stored at −80° C. […]\nSamples were analyzed by direct infusion on a QExactive mass spectrometer (Thermo Scientific) equipped with a TriVersa NanoMate ion source (Advion Biosciences). Samples were analyzed in both positive and negative ion modes with a resolution of Rm/z=200=280000 for MS and Rm/z=200=17500 for MSMS experiments, in a single acquisition. […]\nData were analyzed by Lipotype GmbH with in-house developed lipid identification software based on LipidXplorer (41, 42). […]"}, "E. coli": {"test_system": "E. coli", "assay": "Recombinant expression of DIESL in E. coli, TAG by TLC and mass spectrometry", "format": "cell-based", "settings": "human DIESL preceded by a bacterial membrane targeting sequence, FIG. 4F", "protocol": "E. coli BL21 were transformed with pET24 or pET28a plasmids expressing the indicated construct. Single clones were cultured up to a 5 ml volume in LB broth at OD 0.5 at 37° C. Cultures were then transferred to 25° C. for one hour, and then expression was induced with 0.2 mM IPTG for 16h. For SDS-PAGE and immunoblot analysis, 100 ul of culture was pelleted for 5 minutes at 3,500 g before lysis in SDS-PAGE sample buffer.\nEquivalent numbers of human cells grown to confluence in 6-well plates were first washed with PBS. Cells were then incubated twice in 400 μl extraction buffer (3:2 hexane:isopropanol) for 10 minutes (35). E. coli cell pellets from 2 ml of overnight culture were incubated in 500 μl extraction buffer (only once) for 30 minutes while rotating. Extractions were pooled and dried under nitrogen stream, to a volume of ˜10 μl, and then spotted on silica gel 60 TLC plates (Sigma-Aldrich). Plates were placed in a TLC tank containing a mobile phase to separate neutral lipids (80:20:1 hexane:diethyl ether:acetic acid) or polar lipids (60:50:4:1 chloroform:methanol:water:acetic acid). […] After drying, NBD fluorescence was monitored on a Universal Hood GelDoc system (Bio-Rad) using the fluorescein channel. […] (shaking at 850 rpm) for the indicated time (final [14C] DAG concentration, 50 μM; total radioactivity per assay, 0.14 μCi). […]"}}}
{"molecule": "active DIESL: DIESL polypeptide (human transmembrane protein 68, SEQ ID NO: 1) with triacylglycerol synthase activity (protein, listed as Homo sapiens) MIDKNQTCGVGQDSVPYMICLIHILEEWFGVEQLEDYLNFANYLLWVFTPLILLILPYFTIFLLYLTIIFLHIYKRKNVLKEAYSHNLWDGARKTVATLWDGHAAVWHGYEVHGMEKIPEDGPALIIFYHGAIPIDFYYFMAKIFIHKGRTCRVVADHFVFKIPGFSLLLDVFCALHGPREKCVEILRSGHLLAISPGGVREALISDETYNIVWGHRRGFAQVAIDAKVPIIPMFTQNIREGFRSLGGTRLFRWLYEKFRYPFAPMYGGFPVKLRTYLGDPIPYDPQITAEELAEKTKNAVQALIDKHQRIPGNIMSALLERFH", "values": [{"measurement": "TAG abundance as share of the lipidome", "setting": "[1]", "result": "20.5 % of the lipidome"}, {"measurement": "TAG synthesis in E. coli", "setting": "E. coli", "result": "induced de novo TAG synthesis"}]}
